Laboratory results from paper PMC6547619 (2019).

B1: BAG3-H2L4 (antibody, V domains shown)
VH: QVQLVQSGAEVKKPGASVKVSCKASGFNIKDTYMYWVRQAPGQGLEWMGGVDPANGNTRYDPKFQGRVTLTRDTSTSTVYMELSSLRSEDTAVYYCGRDGAMDYWGQGTLVTVSS
VL: DIVMTQSPDSLAVSLGERATMSCKSSQSLLYSSNQKNYLAWHQQKPGQPPKLLIYWASTRESGVPDRFSGSGSGTDFTLTISSLQAEDLAIYYCQQYYTYPLTFGAGTKLEIK
B2: E. coli rBAG3 (Abcam) (natural protein)
chain: not shown
B3: BAG3-H4L2 (antibody, V domains shown)
VH: EVQLVQSGAEVKKPGATVKISCKVSGFNIKDTYMYWVQQAPGKGLEWMGGVDPANGNTRYDPKFQGRVTITADTSTDTAYMELSSLRSEDTAVYYCARDGAMDYWGQGTLVTVSS
VL: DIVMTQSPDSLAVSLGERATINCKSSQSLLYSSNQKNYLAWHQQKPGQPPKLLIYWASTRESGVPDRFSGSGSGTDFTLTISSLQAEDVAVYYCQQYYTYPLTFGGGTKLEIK

How the values were obtained:
Assay in all cases: SPR
E. coli rBAG3 (Abcam) = target: B2
BAG3-H1L3 = target: BAG3-H1L3
BAG3-H3L4 = target: BAG3-H3L4
BAG3-H2L3 = target: BAG3-H2L3
BAG3-H1L4 = target: BAG3-H1L4
BAG3-H4L3 = target: BAG3-H4L3
BAG3-H4L4 = target: BAG3-H4L4
BAG3-H1L2 = target: BAG3-H1L2
BAG3-H3L2 = target: BAG3-H3L2
BAG3-H2L2 = target: BAG3-H2L2
BAG3-H3L3 = target: BAG3-H3L3

For B1, the Kd (E. coli rBAG3 (Abcam)) was 2.04 nM.

Binder B2 has a Kd (BAG3-H1L3) of 2.83 nM, a Kd (BAG3-H3L4) of 1.7 nM and a Kd (BAG3-H2L3) of 1.98 nM. It also gave a Kd (BAG3-H1L4) of 2.34 nM, a Kd (BAG3-H4L3) of 1.98 nM and a Kd (BAG3-H4L4) of 1.72 nM. For the same binder, the Kd (BAG3-H1L2) was 2.84 nM, the Kd (BAG3-H3L2) was 1.78 nM and the Kd (BAG3-H2L2) was 2.63 nM. It also gave a Kd (BAG3-H3L3) of 1.61 nM.

In the case of B3, the Kd (E. coli rBAG3 (Abcam)) is reported as 2.02 nM.
